Test results taken from US11904004B2, “Anti-CD277 antibodies” (INSTITUT NATIONAL DE LA SANTE ET DE LA RECHERCHE MEDICALE …, priority 2010, dated 2024).
Several values for one entry are separate records, joined by “and”; a condition that tells them apart may be missing. Equal values may be shown once.

Assays:
[1] = test system: monocytes; test: Apoptosis detection (Annexin V), survival of monocytes; type: cell-based, human; details: both monocytes and iDC; data not shown
Method: (§1) Blood samples were obtained from 5 healthy volunteers enrolled among the staff members, after informed consent. Monocytes were separated from peripheral blood mononuclear cells, and isolated using the MACS CD14 isolation kit (Miltenyi Biotech, Auburn, Calif. USA). Monocytes were cultured for 5 days with 200 ng/ml of recombinant human GM-CSF and 10 ng/ml recombinant human IL-4 (Schering-Plough Research Institute). These cells were termed immature dendritic cells (iDC). To achieve the stimulation, monocytes and iDC were cultured with 10 ng/ml of LPS, ligand for TLR4, 30 μg/ml of 8848 (Sigma-Aldrich, Milano, Italy), ligand for TLR7/8 and with […] of poly (I:C) (Sigma-Aldrich), ligand for TLR3, and were harvested after 48 h. The cells were cultured in RPMI 1640 supplemented with 10% heat-inactivated FCS, 5 mM L-glutamine and 50 IU/ml penicillin-streptomycin (from here on referred to as complete medium).
(§2) Monocytes and iDC were cultured on plastic coated with anti-BT3 mAb (clone 20.1) or with isotype-matched irrelevant mAb. As control, the cells were stimulated with 20 ng/ml recombinant human GM-CSF (Schering-Plough Research Institute). After three days, cells were harvested, stained with Annexin V-FITC (Bender MedSystems, Wien, Austria) and analysed by flow cytometry.

[2] = test system: immature dendritic cells (iDC); test: Apoptosis detection (Annexin V), survival of iDC; type: cell-based, human; details: plastic-coated mAb or GM-CSF, 72-h culture, representative value and range of five experiments, listed as anti-BT3 mAb
Method: as §1, §2

[3] = test system: NK cells; test: Functional assay on NK cells, redirected cytolytic activity; type: cell-based, human
Method: Fresh NK cells were sorted with EASY SEP® negative selection kit and incubated over night in medium completed with sub-optimal concentrations of IL-2 (100 U/ml) and IL-15 (10 ng/ml). NK cell receptors functions were tested in re-directed cytolytic experiments against the FcγR positive P815 mastocytoma murine cell line. Briefly, effector cells were incubated with P815 cells pre-coated for 30 minutes with the mAb of interest (irrelevant mouse IgG1: 11 μg/ml, anti-NKp46: 1 μg/ml, anti-DNAM: 5 μg/ml, anti-CD277 20.1: 10 μg/ml) according to a 1:1 Effector:Target (E/T) ratio. Cytotoxic tests were performed in 4-hours assays in the presence of GOLGISTOP® (protein transport inhibitor) and soluble CD107 (a&b)-FITC (both from BD Biosciences), afterward cells were stained for surface markers (CD56-PeCy7 (Beckman Coulter, Immunotech), fixed and permeabilized (CYTOFIX/CYTOPERM®) then stained with intracellular mAb (IFN-γ (Beckman Coulter, Immunotech)). Cells were finally re-suspended in PBS 2% para-formaldehyde and extemporaneously analyzed on a BD FACS CANTO® (BD Biosciences, San Jose, Calif.). The degree of activation of NK cells was measured based on the percentage of cells positive for CD107a and CD107b (degranulation) and/or the production of inflammatory cytokine (IFN-γ).

[4] = test system: Daudi, K562 or Raji cells lines; test: Anti-tumor cytolysis by Vγ9Vδ2 T cells against tumor cell lines (CD107a/b degranulation); type: cell-based, human
Method: We used for γδ T cells labelling in purity test after expansion, anti-CD3 PE-Cy7 and anti-Vδ2 FITC mAb (BD Pharmingen). For CD277 characterisation in different subsets PBMC were incubated with the following antibodies and molecules: anti-CD3 PE-Cy5 (BD Pharmingen), anti-CD4 PB (BD Pharmingen), anti-CD8 PB (BD Pharmingen), anti-Vδ2 FITC (BD Pharmingen), anti-CD27 APC ALEXA FLUOR® 750 (CALTAG Laboratory), anti-CCR7 PECy7 (BD Pharmingen), anti-CD28 PE (Beckman Coulter), anti-CD45RA ECD (Beckman Coulter), LIVE/DEAD® Fixable Dead Cell Stain Kit (L34957, Invitrogen) and anti-CD277 labelled with ALEXA FLUOR® 647 (Protein labelling Kit ALEXA FLUOR® 647, Molecular Probes, Invitrogen). For analysis of CD107a and CD107b expression, γδ T cells and target cells were co-incubated at 37° C. with anti-CD107a FITC and anti-CD107b FITC in presence of monensin (10 μM, GOLIGISTOP®, BD Bioscience). […] All samples were measured on FACSCANTO® or FACSARIA® flow cytometers (BD Biosciences) using FACSDIVA® software. […]
Target cells were labelled with 20 μCi of 51Cr (PerkinElmer) for 1 h at 37° C. […] The radioactivity released by target cells was measured, 4 h later, on beta plate counter. The percentage of specific 51Cr lysis was calculated using the following equation: percent specific lysis=100×[(test release)−(spontaneous release)]/[(maximal release)−(spontaneous release)].

[5] = test system: primary AML blasts; test: NSG mouse/human primary AML blasts xenograft model; type: in vivo; details: NSG mice, UPN09 blasts; 250 μg mAb with 15×10^6 Vγ9Vδ2 T cells i.v. twice a week, weeks 8 to 10 post-graft
Excerpt: NOD-SCID common γ-chain knockout mice (NSG) were purchased from Charles River France or bred in-house and maintained under specific pathogen-free conditions. All animal procedures were in accordance with protocols approved by the local Committee for Animal Experiments. Healthy 6- to 8-weeks-old female mice (n=15) received an injection of 0.2×10^6 luciferase transduced-U937 cells on Day 0, as described^13, and were then randomly assigned in 5 groups to receive intravenous injections of post-expansion-purified Vγ9Vδ2 T cells on Day 1 (30×10^6, 98.8% CD3+TCRVδ2+; Unité de Thérapie Cellulaire et Génique de Nantes) alone or combined to anti-BTN3A 20.1 mAb (250 μg) on Day 2 and 6. Controls comprised NSG mice infused with PBS, or anti-BTN3A 20.1 mAb alone. Mice were imaged with a Photon Imager (Biospace Lab, Paris, France) at different days. For the Primary AML blasts model, NSG mice received sublethal irradiation (2 Gy). On the day after, they received 1×10^6 of CD3-depleted blasts (CD3 depletion Kit, Miltenyi Biotec) isolated from UPN09. […] The peripheral blood number of blasts was quantified during engraftment, before and after treatment by Flow Cytometry (supplementary data 1B). Mice were sacrificed at week 11th post-graft and the number of blasts was quantified in their Bone Marrow (BM).

[6] = with anti-NKp46 or anti-CD16, data not shown

B1: mAb 20.1: murine anti-CD277 antibody obtainable from the hybridoma CNCM I-4402; agonist (antibody, V domains shown)
VH: QVQLQQSGAELVKPGASVKLSCKASGYTFTRYYLYWVKQRPGQGLEWIGEINPNNGGTKFNEKFKSKATLTVDKSSRTTYIQLSSLTSEDSAVYYCSREDDYDGTPDAMDYWGQGTAVTVSS
VL: DIQMNQSPSSLSASLGDTITITCHASQNINLWLSWYQQRPGNIPKLLIYRASNLHTGVPSRFSGSGSATGFTLTISSLQPEDIATYYCQQGHSYPYTFGGGTKLDIK
[1]
  lowest anti-BT3 mAb dilution able to promote a good survival capability: 10 µg/mL
[2]
  healthy-vital (surviving) iDC: 56.75% and 53.13-60.71%
[3]; P815 redirected assay
  NK cell stimulation by CD277 mAb alone: did not have any effect
[3]; [6]
  NK cell IFN-γ secretion, co-stimulation of NKp46 or CD16: not affected
  NK cell cytotoxicity, co-stimulation of NKp46 or CD16: not affected
[4]
  function/activation of Vγ9Vδ2 T cells against tumor targets (CD107a/b degranulation assay): potentiated or revealed
[5]
  circulating blasts (Percentage of variation of the absolute number of blasts in blood before and 4 days after the end of treatment): 37.38±39.89
